Data: paper PMC3068300 (Proteins, 2010)

Biological target: the molecule itself
Test: SEC

B1: Mycobacterium tuberculosis Rv2704 (natural protein)
chain: ASRTMVSSGSEFESAVGYSRAVRIGPLVVVAGTTGSGDDIAAQTRDALRRIEIALGQAGATLADVVRTRIYVTDISRWREVGEVHAQAFGKIRPVTSMVEVTALIAPGLLVEIEADAYVGSAVADRNSGAGPKDPSPAGG
  stoichiometry N: 3
